Reference: the DeepSol protein solubility set

assay: soluble on expression in E. coli; label from the status in PepcDB or PDB records

For “SNAMADWVTGKVTKVQNWTDALFSLTVHAPINPFTAGQFTKLGLEIDGERVQRAYSYVNAPDNPNLEFYLVTVPQGKLSPRLAALKPGDEVQVVSDASGFFVLDEVPDCETLWMLATGTAIGPYLSILQYGQDVARFKNLVLVHAARFAADLSYLPLMLELQQRYEGKLRIQTVVSRENVPGSLTGRVPALIENGELEKAVGLPMDKETSHVMLCGNPQMVRDTQQLLKETRQMTKHLRRRPGHMTAEHYW”, which “soluble on expression in E. coli” value is on record?
The value was “soluble”.

Which “soluble on expression in E. coli” value does the source give for “MPISTPQEIIEDIRQGKMVILMDDEDRENEGDLIMAAEHITPAAINFMATHGRGLICLTLTKERCRRLGLNPMVQDNNAQYTTNFTVSIEAAEGVTTGISAADRARTVQAAVAKEAKAADLVQPGHIFPLAAQDGGVLTRAGHTEAGCDLARLAGLEPASVIVEILNDDGTMARRPDLEVFAEKHGLKLGTIADLIEYRNHTETTIERVAQCKLPTEYGEFELVTYRDIIDKQIHFALRKGDITSAPTLVRVHLQDTFTDLLHSNRAAERSWPLATAMQRIGQEGGVLVILGHEESSELLLHRVKMFELQDKGEAPAMAKKQGTSRRVGVGSQILADLGVKEMRLLSSPNKKYHALGGFGLNVVEYVCE” here?
Its value is “not soluble”.

Which “soluble on expression in E. coli” value does the source give for “TIEIYKNKIPDGKNAGKDAILIKDNNLIKQLEDAAKKNGAESNQKQGGESNVQKEQIIGYTTTGNVREDGNHIFRVDKINDEQYDRKIIVGVTVETLEQSSTLQSEEAIVLAAPGKYKSTDKKKVTITQGPNIIGIHANEKENAETQKFVDW” here?
The value was “soluble”.

Which “soluble on expression in E. coli” value does the source give for “MGHHHHHHSHDGQLFCKKDYWARYGESCHGCSEQITKGLVMVAGELKYHPECFICLTCGTFIGDGDTYTLVEHSKLYCGHCYYQTVVTPVIEQILPDSPGSHLPHTVTLVSIPASSHGKRGLSVSIDPPHGPPGCGTEHSHTVRVQGVDPGCMSPDVKNSIHVGDRILEINGTPIRNVPLDEIDLLIQETSRLLQLTLEHDP” here?
Its value is “not soluble”.

Which “soluble on expression in E. coli” value does the source give for “MAQIDFRKKINWHRRYRSPQGVKTEHEILRIFESDRGRIINSPAIRRLQQKTQVFPLERNAAVRTRLTHSMEVQQVGRYIAKEILSRLKELKLLEAYGLDELTGPFESIVEMSCLMHDIGNPPFGHFGEAAINDWFRQRLHPEDAESQPLTDDRCSVAVLRLRDGEEPLNELRRKIRQDLCHFEGNAQGIRLVHTLMRMNLTWAQVGGILKYTRPAWWRGETPETHHYLMKKPGYYLSEEAYIARLRKELNLALYSRFPLTWIMEAADDISYCVADLEDAVEKRIFTVEQLYHHLHEAWGQHEKGSLFSLVVENAWEKSRSNSLSRSTEDQFFMYLRVNTLNKLVPYAAQRFIDNLPAIFAGTFNHALLEDASECSDLLKLYKNVAVKHVFSHPDVEQLELQGYRVISGLLEIYRPLLSLSLSDFTELVEKERVKRSPIESRLFHKLSTRHRLAYVEAVSKLPSDSPEFPLWEYYYRCRLLQDYISGMTDLYAWDEYRRLMAVEQ” here?
Its value is “not soluble”.

With “MQGQIIKALAGFYYVESDGQVYQTRARGNFRKKGHTPYVGDWVDFSAEENSEGYILKIHERKNSLVRPPIVNIDQAVVIMSVKEPDFNSNLLDRFLVLLEHKGIHPIVYISKMDLLEDRGELDFYQQTYGDIGYDFVTSKEELLSLLTGKVTVFMGQTGVGKSTLLNKIAPDLNLETGEISDSLGRGRHTTRAVSFYNLNGGKIADTPGFSSLDYEVSRAEDLNQAFPEIATVSRDCKFRTCTHTHEPSCAVKPAVEEGVIATFRFDNYLQFLSEIENRRETYKKVSKKIPK” as the sequence, how does the “soluble on expression in E. coli” value read?
The value was “not soluble”.

For “MNNKYQMGVSTNLKYKGISLGIDFDIRQGGVMYSRTKDINYFTGNAIQTAYNDRNPLIVPNSVNKIVNGENVTYVENTTPITSSNIYKYWGDGGSDMGSCFLVDKSYVKLRSVVLGWDLPKRWLAKTPFQAVKVSAYGNNLFVWTPSSNTFIDPEMTSFGNDLEGNYGEYTANPSSRRFGFNLMVKF”, which “soluble on expression in E. coli” value is on record?
The value was “not soluble”.

With “MGSDKIHHHHHHENDPPLSSCGIFQSRIAGDALLDSGIRISSVFASPALRCVQTAKLILEELKLEKKIKIRVEPGIFEWTKWEAGKTTPTLMSLEELKEANFNIDTDYRPAFPLSALMPAESYQEYMDRCTASMVQIVNTCPQDTGVILIVSHGSTLDSCTRPLLGLPPRECGDFAQLVRKIPSLGMCFCEENKEEGKWELVNPPVKTLTHGANAAFNWRNWISGN” as the sequence, how does the “soluble on expression in E. coli” value read?
Its value is “not soluble”.

With “MQNGYTYEDYQDTAKWLLSHTEQRPQVAVICGSGLGGLVNKLTQAQTFDYSEIPNFPESTVPGHAGRLVFGILNGRACVMMQGRFHMYEGYPFWKVTFPVRVFRLLGVETLVVTNAAGGLNPNFEVGDIMLIRDHINLPGFSGENPLRGPNEERFGVRFPAMSDAYDRDMRQKAHSTWKQMGEQRELQEGTYVMLGGPNFETVAECRLLRNLGADAVGMSTVPEVIVARHCGLRVFGFSLITNKVIMDYESQGKANHEEVLEAGKQAAQKLEQFVSLLMASIPV” as the sequence, how does the “soluble on expression in E. coli” value read?
Its value is “soluble”.

With “MQLKTEYGKIDPYITKDGSIIRELMHPAIHGNSGQSLAEATVPAGGQTMLHKHAVAEEIYHITEGCGIMTLGGQEFEIRKGDTVCILPGTPHRIMNTGEKELKILCCCAPAYSHEDTELMKLEHHHHHH” as the sequence, how does the “soluble on expression in E. coli” value read?
The value was “soluble”.

For “MSTRFRLSLALLTTLVLSACDDAPRFTHAEPGEALSGGSATVRKSDQNAFSMPSANLSPVRRLDFSVGNSFFRSPWVIAPSTTTARDGLGPLFNTNACQNCHIKDGRGHPPEAGDSNAVSMLVRLSIPDDPAYADLIRRNGVLPEPTYGGQLQDMSNPGVAPEGKVRVEYDALTVNFRDGTAVELRQPTLRITQLGYGPMHPETHISARIAPPMIGLGLLEAIADDAILANADPDDKNADGISGRPNWVWDDVQQKVVMGRFGWKAGQPNLNQQNVHAFSGDMGLTTSLRRVDDCTPAQTDCLVAPNGNGPDGEPEVSDNILRLVEFYTRNLGVPARRKVADPQVLAGKNLFFEAGCQQCHTPSFKTRSDAAQPELANQDIRPYSDLLLHDMGEGLADNRTEFQATGREWRTPPLWGLGLTETVSGHTQLLHDGRARNMLEAILWHGGEAQAAQRRVLAFDAEQREALLAFLNSL”, which “soluble on expression in E. coli” value is on record?
Its value is “not soluble”.

For “MEKNKLRKVGLTALEWLKQHPEIKQHKESSLYEQLFASQQWQQAQTIGMIRSLPLELSTQPIFERAMQESKQVAVPRTFKGGKMHFYQVFPETVYDTSAFGVEEPPLTAAEITATAIDLLIVPGIVFNRAGYRIGFGGGFYDRYLEHFSGHSCSLVFSEQLHEQWQPEAFDQPIEQLFIQLEHHHHHH”, which “soluble on expression in E. coli” value is on record?
Its value is “not soluble”.

With “MSLHPASANLSPSSVKNCSAKTFGFLILPNFTTIGLASAVETLRMANLAARKPLYRSVLIAADDAPVVASNGMRVLPDYNITNAPALDALLVVGANPIDRSRSNRPLIDWLRQLARQRLPLGGICTGSYLLAKAELLKGYRCTIHWEDLPTLQAHFPGIVISSQLFELDRDRYTCSGGVAAMDMMLQLVARDTGGQDIAAKAAELLLCDRVRGEREGHHHHHH” as the sequence, how does the “soluble on expression in E. coli” value read?
Its value is “soluble”.

For “MGSDKIHHHHHHMEVAMEKIYYPRTIDSYLLEWKNERAHKPLLLRGARQVGKSSAVRQLGKTFKYFMEVNFERDKEIISVFTGNLKPKEITSRLAAFYGIPVVPGETLLFLDEIQACTPAIHSLWFFYEDYPELHVVAAGSLLEFALKKMAFFGVGRVRSLFMYPMSFDEFLAATGHAGWIEAKRNASPAEPLFEALHGKLVESFRNYLMVGGMPESVQNWVETEDYLKCQQVQDDIMLAYEDDFSKYEEKADPMLLRQTLRSVAQQIGGKFVYSNVQGNYRSEKIKSALELLKDAGLVRPAVHTAANGIPLGAEINEKFVKYIFLDSGLLLRLLGLENTGGTSEMSRLVLVGAASDLVNKGHITEMVAGLELLKYNTPVQRHDLYYWQNLSRGAQAEVDYVIVKDMRVVPLEVKAGTTGSMKSMYQFMEEKHLTYGIRTSLENFGKLEKADIIPLYALSNLYK”, which “soluble on expression in E. coli” value is on record?
Its value is “not soluble”.

Which “soluble on expression in E. coli” value does the source give for “MSLTGKKIETHLEDMVAQANAQLKLTAPESNLEVSYQNYHRGVFSSQLQLLVKPIAGKENPWIKSGQSVIFNESVDHGPFPLAQLKKLNLIPSMASIQTTLVNNEVSKPLFDMAKGETPFEINSRIGYSGDSSSDISLKPLNYEQKDEKVAFSGGEFQLNADRDAKPSPFPGRRKVVRIDAVNEYNQKVQLTFNNLKTDGSSTLASFGERVGNQKLSLEKMTISVEGKELALLEGMEISGKSDLVNDGKTINSQLDYSLNSLKVQNQDLGSGKLTLKVGQIDGEAWHQFSQQYNAQTQALSRQPEIANNPELYQEKVTEAFFSALPLMLKGDPVITIAPLSWKNSQGESALNLSLFLKDPATTKEAPQTLAQEVDRSVKSLDAKLTIPVDMATEFMTQVARKVIRKIKRKNWRNSKLKVHQQWGRCSVEGHHHHHH” here?
The value was “not soluble”.

Which “soluble on expression in E. coli” value does the source give for “MQRIELLPLVLDNQTFFQNCPDIIPRIIPFSPCLDGSEVNFICGPLHTGKTSFLRQVAGSLQGLKVYINFEDSRFRDLKPETLQEIKEIAAEYCIKGPEDEEGLAGKDIDDKERPEVPVSYFLDEIHYLPGWGDRVYSLQNDGARVFVTSSSAGIISKEISSRFADGIKIIRLLPFSFKEYLTLKGLRVPRPNFLTPSRCDEMLCLFLQYFENGGFPEIIKSGDFRLSRKYFEETLQKEIIERHTIQDPEGLKKLAVFLISNMASEYSIDTLKRAGGIKDEATVRNYLDYLEEAFLLYRVPMFRHKSEKPDYGKEGENENERESNIPCKVYAGDTGFFKSVFPRYPDSLGLRFENLVFLELLRKGKQVYYFHNTRECDFLIAEKESQKVTAAVQVCLCFGGTAVREREVLGLMEAMEEFGLNEGLILTMDDEEVMEIEGKDGENKRIIINSVWKWMLELEHHHHHH” here?
The value was “not soluble”.

For “MNPLVIKLGGVLLDSEEALERLFTALVTYREKHERPLVIMHGGGCLVDELMKRLALPVVKKNGLRVTPADQIDIITGALAGTANKTLLAWAVKHQINAVGLCLADGNTVTVTLLDAELGHVGKAQPGSAALVQTLLAAGYMPIISSIGITVEGQLMNVNADQAATALAATLGADLILLSDVSGILDGKGQRIAEMTAQKAEQLIAQGIITDGMVVKVNAALDAARSLGRPVDIASWRHSEQLPALFNGVPIGTRISV”, which “soluble on expression in E. coli” value is on record?
The value was “not soluble”.

With “MPIIRPEELPKLMRTISMSNLSIPTRCLLEWQLLTLIRPAEASATAWSEIDIENKQWCIPAERMKAKRDHIVPLSEQALELLEIMRPISGNRQYVFPSRNDPRKPMNSQTANAALKRIGYSGKLVAHGLRSIASTAMNEAGFNADVIEAALAHSDKLEHHHHHH” as the sequence, how does the “soluble on expression in E. coli” value read?
The value was “not soluble”.

For “MRALREKTSMSQGVEFNRLMLDMRAMQMDAMSAPKPVSGAQEAGASSFADMLGQAVNKVAQTQQASSQLANAFEVGKSGIDLTDVMISSQKASVSFQALTQVRNKLVQAYQDIMQMPV”, which “soluble on expression in E. coli” value is on record?
The value was “not soluble”.

Which “soluble on expression in E. coli” value does the source give for “MGEVQREKVAVIIGPTAVGKTKLSIDLAKALNGEIISGDSMQIYRTMDIGTAKVTKAEMDGIPHYMIDIKNPEDSFSVAEFQERVRKHIREITERGKLPIIVGGTGLYIQSVLFDYQFTDDAGDVIYREQREKLALERGVEYVHEKLQEVDPESAERIHANNVRRVIRALEIFHTTGEKMSEQIEKQEKELLYDVSLIGLTMDREMLYDRINLRVDLMMEQGLLEEVEGLYNRGIRDCQSIQAIGYKEIYDYFENRASLEDAVSQLKTNSRRYAKRQLTWFRNKMDVTWFDVTDGEKTSEILRYIEGKLQVKSNNSKLEHHHHHH” here?
Its value is “soluble”.

Which “soluble on expression in E. coli” value does the source give for “MGSDKIHHHHHHMLQMIPARPSRALASLSEAYEECRQITARYAKTFYLGTLLMPEAKRQAIWAIYVWCRRTDELVDGPQAAQTNFATLDAWERRLERLFAGEPEDDCDVALVDTLARYPLDIQPFRDMIEGQRMDLLQNRYSTFEDLYTYCYRVAGTVGLMSQPVMGIESTNSRAPWDPTTPPDPTQEALALGIANQLTNILRDVGEDARRGRIYLPQEELAQFNYSEQDLFNGVIDDRWRAFMQFQLDRARDYFEQAERGIRQLSHDARWPVWASLMLYREILDVIEQNNYDVFRKRAYVPTWRKLCSLPVAMLRATVL” here?
Its value is “not soluble”.
